Reference: US5989823, “Homogeneous detection of a target through nucleic acid ligand-ligand beacon interaction” (NeXstar Pharmaceuticals, Inc.)

Columns and labels:
[1] = target: T1, PDGF (platelet derived growth factor) (Homo sapiens, UniProt P01127 P01127:82-190); test: competition; no change in beacon fluorescence; 100 nM aptamer, PBSM, 4 uM tRNA, 37 C; conditions: chain copies: 2
Procedure: Specificity of Nucleic Acid Ligand Interaction with Target in the Presence of Ligand Beacon In the previous examples, a concentration-dependent signal reduction was observed when the target was added. This should not be observed when the wrong target protein is added. This point is illustrated in FIG. 7, where TAQ-nucleic acid ligand (100 nM) was mixed with increasing concentrations of PDGF in PBSM buffer containing 4 μM tRNA at 37° C. for 10 min. Then 110 nM TAQ-ligand beacon was added, incubated for an additional 10 min at the same temperature and fluorescence was measured.

[2] = target: T1, PDGF (platelet derived growth factor); test: competition; ligand beacon (SEQ ID NO:2) fluorescence decreases with PDGF; 100 nM aptamer, PBSM (1 mM MgCl2), 4 uM tRNA, 30 C; also in human plasma at 37 C; conditions: chain copies: 2
Procedure: The PDGF ligand beacon was used in an assay in which 100 nM PDGF nucleic acid ligand above was mixed with an increasing concentration of PDGF for 10 minutes at 30° C. […] in PBSM buffer containing 4 µM tRNA. Then, 100 nM PDGF ligand beacon was added and the mixture was incubated for 10 minutes at 30° C. A measurement of fluorescein emission at 530 nm was made for each concentration of PDGF using 488 nm monochromatic laser light for excitation in a 96 well format Vistra Fluorimager SI. […] This is the expected result, because as the concentration of PDGF increases, the concentration of PDGF nucleic acid ligand that is not bound to PDGF decreases. Thus, there is a smaller pool of PDGF nucleic acid ligand for the PDGF ligand beacon to hybridize to.

T1 sequence (P01127 82-190, one chain of several): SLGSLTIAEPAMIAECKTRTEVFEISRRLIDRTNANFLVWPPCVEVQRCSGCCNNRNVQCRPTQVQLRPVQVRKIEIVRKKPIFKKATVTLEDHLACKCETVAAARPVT

B1: TAQ nucleic acid ligand (ssDNA)
DNA: TGGCGGAGCGATCATCTCAGAGCATTCTTAGCGTTTTGTTCTTGTGTATGA
B1: no binding [1].

B2: PDGF nucleic acid ligand (ssDNA)
DNA: TGGGAGGGCGCGTTCTTCGTGGTTACTTTTAGTCCCGT
B2: binds [2].
